Measured values: patent publication US20070048315A1 (SCHERING, published 2007)
Substitutions are numbered along the chain they refer to. “And” between values parts separate entries of the source, which are not always exact repeats. Equal values may be shown once.

T1: "Non-linked" human IL-23 (human p40 coexpressed in 293T cells with human p19:FLAG-tag peptide) (human, UniProt P29460 23-328)
T1 sequence 1: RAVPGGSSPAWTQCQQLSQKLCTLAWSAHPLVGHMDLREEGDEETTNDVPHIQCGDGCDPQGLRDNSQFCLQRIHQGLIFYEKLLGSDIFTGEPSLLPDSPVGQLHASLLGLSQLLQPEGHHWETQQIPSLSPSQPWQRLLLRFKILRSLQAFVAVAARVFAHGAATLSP
T1 sequence 2: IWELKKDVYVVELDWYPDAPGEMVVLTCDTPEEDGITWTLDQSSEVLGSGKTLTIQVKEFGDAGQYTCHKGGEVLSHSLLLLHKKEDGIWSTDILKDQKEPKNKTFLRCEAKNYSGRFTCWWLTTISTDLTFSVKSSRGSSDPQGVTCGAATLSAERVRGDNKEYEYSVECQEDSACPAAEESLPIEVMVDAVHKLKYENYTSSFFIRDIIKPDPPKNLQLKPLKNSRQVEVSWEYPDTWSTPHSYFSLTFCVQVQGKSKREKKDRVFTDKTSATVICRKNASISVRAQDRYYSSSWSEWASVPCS

T2: non-tagged, non-linked native human IL-23p19/p40 coexpressed in SF9 cells (eBioscience CAT No. 34-8239) (human, UniProt P29460 23-328)
T2 sequence 1: T1 sequence 1
T2 sequence 2: T1 sequence 2

B1: humanized anti-human IL-23p19 antibody hum7G10 (antibody, human IgG1, kappa, V domains shown)
VH: QVQLVQSGAEVKKPGASVKVSCKASGYTFTSNVMHWVRQAPGQGLEWMGYINPYNDGTKYNEKFKGRVTMTTDTSTSTAYMELRSLRSDDTAVYYCARNWDVAYWGQGTLVTVSS
VL: DIQMTQSPSSLSASVGDRVTITCRASQSISDYLHWYQQKPGKAPKLLIYYASQSISGVPSRFSGSGSGTDFTLTISSLQPEDFATYYCQNGHSFPFTFGQGTKVEIKR
B2: humanized anti-human IL-23p19 antibody hum6H12 (antibody, human IgG1, kappa, V domains shown)
VH: B1 VH with T30N, S31R, N32Y, V33L, M34I, Y54N, D56A, K59N, V102Q
VL: B1 VL with A51T
B3: mouse anti-human IL-23p19 antibody 39G2 (antibody, V domains shown)
VH: QVQLQQPGAELVRPGASVKLSCKASGYSFTSSWMNWVKQRPGQGLEWIGMIHPSDSETRTNQKFKDKATLTVDKSSSTAYMQLSSPTSEDSAVYYCARGMITAPTVYWGQGTLVTVSA
VL: DIVLTQSPASLAVSLGQRATISCRASKSVSTSAYSYFHWYQQKPGQPPKLLIYLASNLESGVPARFSGSGSGTDFTLNIHPVEEEDAATYYCQHSRELPWTFGGGTKLEITP
B4: mouse anti-human IL-23p19 antibody 35F12 (antibody, V domains shown)
VH: B3 VH with V12M, K19R, S31T, T60L, K63N, K74R, S84N, T105S
VL: B3 VL with E85G, P112R
B5: mouse anti-human IL-23p19 antibody 7G10 (antibody, V domains shown)
VH: EVQLQQSGPELVKPGASVKMSCKASGYTFTSNVMHWVKQKPGQGLEWIGYINPYNDGTKYNEKFKGKATLTSDKSSSTAYMELSSLTSEDSAVYYCARNWDVAYWGQGTLVTVSA
VL: DIVMTQSPATLSVTPGDRVSLSCRASQSISDYLHWYRQKSHESPRLLIKYASQSISGIPSRFSGSGSGSDFTLSINSVEPEDVGVYYCQNGHSFPFTFGSGTKLEIKR
B6: mouse anti-human IL-23p19 antibody 13B5 (antibody, V domains shown)
VH: EVQLQQSGPELVKPGASVKMSCKASGYTFTRYLMHWVKQKPGQGLEWIGYINPYNDGTNYNEKFKGKATLTSDKSSSTAYMELSSLTSEDSAVYYCARNWDVGGYWGQGTTLTVSS
VL: B5 VL with R37Q
B7: mouse anti-human IL-23p19 antibody 6H12 (antibody, V domains shown)
VH: B5 VH with Q3H, T30N, S31R, N32Y, V33L, M34I, Y54N, K59N, R98A, V102Q
VL: B5 VL with R37Q, A51T
B8: mouse anti-human IL-23p19 antibody 33B12 (antibody, V domains shown)
VH: QVQLQQSGAELARPGASVKLSCKASGYTFTSYSLKWVKQRTGQGLEWIGEIHPRSGNTHYNEKFKGKATLTADKSSSTAYMDLRSLTSEDSAVYFCATNWDLGYWGQGTTITVSS
VL: B5 VL with M4L, Y36F, R37Q, K39R
B9: mouse anti-human IL-23p19 antibody 3D7 (antibody, V domains shown)
VH: QVQLQQSGPELVKPGASVKISCKASGYSFTSYYIHWVKQRPGQGLEWIGWIFPGSGNTKYNEKFKGKATLTADTSSTTAYMQLSSLTSEASAVYFCAREGLHYFGLYAMDYWGHGTSVTVSS
VL: DIQMTQTTSSLSASLGDRVTISCSASQGISNYLNWFQQKPDGTVKLLIYYTSSLHSGVPSRFSGSGSGTDYSLTISNLEPEDIATYYCQQYSKLPYTFGGGTKLEIKR

Experiments:
Assay in all cases: cell-based or functional assay
[1] = target: "Elastikine" human IL-23 (single chain FLAG-tag peptide:GLU-tag peptide:human p40:elasti-linker:human p19, … (human, UniProt P29460 23-328))
[2] = target: T1, "Non-linked" human IL-23 (human p40 …)
[3] = target: T2, non-tagged, non-linked native human …
[4] = target: "Elastikine" human IL-23 (single chain FLAG-tag peptide:GLU-tag peptide:human p40:elasti-linker:human p19, … (human, UniProt P29460 23-328)); remark: listed apart in the source

Binder	IC50 for blocking of Ba/F3 cell proliferation [1] [nM]	IC50 for blocking of Ba/F3 cell proliferation [2] [nM]	IC50 for blocking of Ba/F3 cell proliferation [3]	IC50 for blocking of Ba/F3 cell proliferation [4]
B1	29	10000	7800 nM	
B2	27	4000	3200 nM	
B3		67	11 nM	9 nM and 5 nM
B4		73	12 nM	15 nM and 5 nM
B5		3000		22 nM and 18 nM
B6		113	31 nM	7 nM and 5 nM
B7		1500	1300 nM and 500 nM	11 nM and 9 nM
B8		193	57 nM	4 nM and 3 nM
B9		37	2 nM	3 nM
